Measurements reported in paper PMC4980077.

Legend:
PKA-RIα (Homo sapiens) = PKA-RIα (Homo sapiens) (UniProt P10644); assay: fluorescence polarization; details: cited from earlier work
PKA-RIβ (Homo sapiens) = PKA-RIβ (Homo sapiens) (UniProt P31321); assay: fluorescence polarization; details: cited from earlier work
smAKAP-wt-GFP (human) = smAKAP-wt-GFP (human) (UniProt Q9BSF0); assay: FRET or BRET
smAKAP-wt-GFP (human), sequence (Q9BSF0 whole entry): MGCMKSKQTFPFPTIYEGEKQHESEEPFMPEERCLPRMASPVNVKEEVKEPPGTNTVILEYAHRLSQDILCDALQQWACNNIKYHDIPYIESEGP

smAKAP, sequence (Q9BSF0 2-95): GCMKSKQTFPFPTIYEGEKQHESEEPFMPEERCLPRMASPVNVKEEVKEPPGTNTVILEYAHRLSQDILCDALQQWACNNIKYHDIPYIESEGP
PKA-RIα (Homo sapiens), sequence (P10644 whole entry): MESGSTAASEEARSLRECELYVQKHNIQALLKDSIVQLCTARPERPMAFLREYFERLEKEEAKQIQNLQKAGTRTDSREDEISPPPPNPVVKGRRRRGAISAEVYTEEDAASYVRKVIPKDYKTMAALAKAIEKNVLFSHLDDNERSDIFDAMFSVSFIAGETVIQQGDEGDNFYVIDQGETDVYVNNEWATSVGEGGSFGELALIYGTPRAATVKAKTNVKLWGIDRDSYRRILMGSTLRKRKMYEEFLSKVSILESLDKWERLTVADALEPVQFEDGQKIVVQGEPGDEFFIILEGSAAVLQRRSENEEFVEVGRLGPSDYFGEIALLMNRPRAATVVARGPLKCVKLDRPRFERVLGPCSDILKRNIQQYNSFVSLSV

Substance	Kd (PKA-RIα (Homo sapiens)) [nM]	Kd (PKA-RIβ (Homo sapiens)) [nM]	change of FRET signal after forskolin (smAKAP-wt-GFP (human)) [%]
smAKAP (from UniProt Q9BSF0)	6.7	6.9	
PKA-RIβ-mKO2 (from UniProt P31321 1-381) (natural protein)			-2.3
